According to patent US8241627B2, “Modified polypeptides stabilized in a desired conformation and methods for producing same” (The Center for Blood Research, Inc., priority 2000, dated 2012):
Positions count from the first letter of the chain named. In names and notes the source's numbering stands. Blank lines part the entries; values can stand above or below the molecule they belong to.

What was measured:
ICAM-1 [1] = target: T1, ICAM-1 (Homo sapiens, UniProt P05362); experiment: Binding of LFA-1 or isolated I-domain transfectants to immobilized ICAM-1; assay type: cell-based; parameters: ICAM-1 was purified from human tonsil; from tissue; host or cells: human tonsil; settings: for binding of 293T transient transfectants to immobilized ICAM-1 with activating mAb CBRLFA-1/2: CBRLFA-1/2 10 μg/ml; for binding of 293T transient transfectants to immobilized ICAM-1: no activating antibody; for binding of K562 cells expressing isolated I-domains to immobilized ICAM-1: I-domain on cell surface via PDGFR transmembrane domain; for effect of Mn2+ or Mg2+ on ligand binding of isolated I-domains: K562, 1 mM Mn2+ or Mg2+; for effect of DTT treatment on binding to ICAM-1: K562 transfectants, DTT 10 mM in L15/FBS
Experimental: Clones of the transfectants that expressed similar levels of cell surface LFA-1, as determined by flow cytometry using monoclonal antibody TS2/4 (FIG. 3B), were tested for their ability to bind to immobilized ICAM-1, as previously described (Lu, C and Springer, T A (1997) J Immunol 159:268-278).
Briefly, ICAM-1 was purified from human tonsil, and coated to 96-well plates as described previously (Lu, C and Springer T A, (1997) J Immunol 159:268-278). Cells were labeled with a florescence dye 2′,7′-bis-(carboxyethyl)-5(and-6)-carboxyfluorescein, acetoxymethyl ester (BCECF-AM), and resuspended to 1×10^6/ml in L15/FBS. 50 μl cell suspension was mixed in ICAM-1 coated wells with an equal volume of L15/FBS in the absence or presence of monoclonal antibody (CBRLFA-1/2, 10 μg/ml). Monoclonal antibodies were used at final concentration of 1:20 hybridoma supernatant, 1:200 ascites, or μg/ml purified IgG. For testing the effect of divalent cations, BCECF-AM-labeled cells were washed 2× with TS buffer, pH7.5 (20 mM Tris, pH 7.5, 150 mMNaCl) containing 5 mM EDTA, followed by 2 washes with TS buffer, pH7.5. Cells were then resuspended to 5×10^5/ml in the TS buffer, pH7.5 supplemented with 1 mM MgCl2/CaCl2, MgCl2, MnCl2 mM EDTA, and 100 μl cell suspension was added to ICAM-1 coated wells. After incubation at 37° C. for 30 minutes, unbound cells were washed off on a Microplate Autowasher (Bio-Tek Instruments, Winooski, Vt.). The fluorescence content of total input cells and the bound cells in each well was quantitated on a Fluorescent Concentration Analyzer (IDEXX, Westbrook, Me.). The bound cells were expressed as a percentage of total input cells per sample well.
For generating stable K562 transfectants that express the I-domain on the surface, 20 μg of SspI-linearized pcDNA3.1/Hygro(+) containing the sequences encoding the I domain and the PDGFR transmembrane domain was used to transfect K562 cells by electroporation as described above. Transfectants were selected for resistance to 100 μg/ml hygromycin B, and were further subcloned by cell sorting and limiting dilution; clones that expressed similar levels of surface wild-type and mutant I domain-PDGFR were selected for functional studies. Stable cell lines were maintained in RPMI medium 1640 supplemented with 10% FBS and 100 μg/ml hygromycin B. Cell surface expression of the isolated I-domains was determined by flow cytometry using antibody TS1/22 to the I-domain (FIG. 7). Two clones from each transfectant were selected and tested for binding to immobilized ICAM-1, and similar results were obtained with each of the two clones (FIG. 8A).
If the constitutive ligand binding activity of mutant K287C/K294C is due to the formation of a disulfide bond between the introduced C287 and C294, disruption of the disulfide bond with a reducing agent would abolish ligand binding ability of the mutant. Accordingly, the transfectants were treated with the reducing agent DTT (10 mM) in L15/FBS containing Mg^2+ and Ca^2+, and the ability of transfectants to bind to ICAM-1 was assessed.
Furthermore, the effect of divalent cations on ligand binding of the isolated I-domains expressed on the surface of K562 transfectants was tested. The binding reactions were performed in HEPES/NaCl/glucose (20 mM HEPES, pH 7.5, 140 mM NaCl, 2 mg/ml glucose) supplemented with 1 mM […], 1 mM Mg^2+, or 1 mM EDTA.
Target sequence in this assay (P05362 28-532): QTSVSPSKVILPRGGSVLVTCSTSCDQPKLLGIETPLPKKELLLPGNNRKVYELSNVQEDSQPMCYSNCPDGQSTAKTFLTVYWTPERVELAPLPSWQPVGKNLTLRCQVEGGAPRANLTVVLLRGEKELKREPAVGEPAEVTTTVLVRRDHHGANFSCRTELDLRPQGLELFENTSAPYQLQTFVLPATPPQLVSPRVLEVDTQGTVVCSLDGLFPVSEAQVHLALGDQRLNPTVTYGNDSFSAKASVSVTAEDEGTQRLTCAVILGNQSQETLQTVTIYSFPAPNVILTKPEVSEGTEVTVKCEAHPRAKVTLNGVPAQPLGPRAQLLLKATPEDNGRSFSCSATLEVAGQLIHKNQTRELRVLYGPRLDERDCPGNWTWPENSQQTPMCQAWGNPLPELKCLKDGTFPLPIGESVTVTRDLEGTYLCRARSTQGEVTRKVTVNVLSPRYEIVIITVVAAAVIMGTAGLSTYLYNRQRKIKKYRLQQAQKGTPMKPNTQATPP

ICAM-1 [2] = target: T1, ICAM-1; experiment: BIAcore binding of soluble αL I-domains to ICAM-1; settings: for Kon, interaction of αL I-domains with ICAM-1: calculated by Koff/KD; for Koff, interaction of αL I-domains with ICAM-1: curve fitting of dissociation phase, 1:1 binding model
Experimental: Briefly, recombinant mutant αL I-domain stabilized in the open conformation (K287C/K294C), or recombinant wild-type αL I-domain from amino acid residue G128 to Y307, were cloned into pET11b (Novagen) and expressed in E. coli induced with 1 mM IPTG for 4 hours. The recombinant proteins were purified from inclusion bodies by solubilization of inclusion bodies in 6M guanidine HCl and were refolded by dilution in the presence of 0.1 mM Cu^2+/phenanthrolin to enhance formation of disulfide bonds. Protein was concentrated by ammonium sulfate precipitation, dialyzed, and purified over a monoQ ion-exchange column. […] The recombinant proteins were then purified by gel filtration and concentrated by Centriprep. For BIAcore™ analysis, recombinant ICAM-1, ICAM-2 and ICAM-3 Fc chimeras were immobilized on the BIAcore™ sensor chip by an amine-coupling method. Recombinant αL I-domains were flowed in, and BIAcore™ assays were performed with Tris-buffered saline supplemented with 1 mM MgCl2 or 2 mM EDTA, at a flow rate of 10 μl/minute at 25° C.
Target sequence in this assay (P05362 28-480 limits assumed): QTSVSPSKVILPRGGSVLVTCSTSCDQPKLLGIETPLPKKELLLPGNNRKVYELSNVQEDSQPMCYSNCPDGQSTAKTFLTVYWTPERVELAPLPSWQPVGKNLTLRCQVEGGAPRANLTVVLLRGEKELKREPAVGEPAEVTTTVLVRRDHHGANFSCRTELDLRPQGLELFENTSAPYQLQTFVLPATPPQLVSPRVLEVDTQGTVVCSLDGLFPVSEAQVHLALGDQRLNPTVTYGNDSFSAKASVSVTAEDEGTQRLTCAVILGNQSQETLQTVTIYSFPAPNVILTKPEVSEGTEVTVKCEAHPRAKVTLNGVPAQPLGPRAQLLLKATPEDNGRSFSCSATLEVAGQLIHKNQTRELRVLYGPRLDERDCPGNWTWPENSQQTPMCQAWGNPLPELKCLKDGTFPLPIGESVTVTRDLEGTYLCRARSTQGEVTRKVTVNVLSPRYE

[3] = test system: T-lymphocytes in peripheral lymph node high endothelial venules; experiment: Intravital microscopy of lymphocyte behaviour in peripheral lymph node high endothelial venules; assay type: in vivo; settings: mouse
Experimental: Moreover, the ability of the open I-domain mutants to inhibit LFA-1 function in vivo was tested by visualizing microcirculation in the peripheral lymph node (LN) with intravital microscopy. Briefly, a small bolus (20-50 µl) of LN cell suspensions from […] mice were retrogradely injected through a femoral artery catheter and visualized in the subiliac LN by fluorescent epi-illumination from a video-triggered xenon arc stroboscope. After recording control […] cell behavior in the absence of 1-domain, the mouse was pretreated by intra-arterial injection of 1-domain (10 µg/g of weight) 5 minutes before T^GFP cell injection. All scenes were recorded on videotape and off-line analysis was done. The rolling fraction was calculated as percentage of rolling cells amount the total number of TGFβ cells that entered a venule. The sticking (firm adhesion) fraction was determined as the percentage of T^GFP cells becoming firmly adherent for >20 seconds in the number of T^GFP cells that rolled in a venule. Results were semi-quantitatively scored as follows: −: 0%, .+−.: 0-5%, +: 5-20%, ++: 20-40%, +++: 40-60%, ++++: 60-80%, +++++:80-100%.

B2: K160C/F299C: intermediate-affinity open αL I-domain mutant, cysteines for K160 and F299 (protein)
chain: GNVDLVFLFDGSMSLQPDEFQKILDFMKDVMKCLSNTSYQFAAVQFSTSYKTEFDFSDYVKRKDPDALLKHVKHMLLLTNTFGAINYVATEVFREELGARPDATKVLIIITDGEATDSGNIDAAKDIIRYIIGIGKHFQTKESQETLHKFASKPASEFVKILDTFEKLKDLCTELQKKIY
- Kon, interaction of αL I-domains with ICAM-1 (ICAM-1 [2]): 153000 M⁻¹ s⁻¹
- Koff, interaction of αL I-domains with ICAM-1 (ICAM-1 [2]): 0.67 s⁻¹

B4: L161C/F299C: intermediate-affinity open αL I-domain mutant, cysteines for L161 and F299 (protein)
chain: B2 chain with C33K, L34C
- Kon, interaction of αL I-domains with ICAM-1 (ICAM-1 [2]): 136000 M⁻¹ s⁻¹
- Koff, interaction of αL I-domains with ICAM-1 (ICAM-1 [2]): 0.513 s⁻¹

B6: L161C/T300C: intermediate-affinity open αL I-domain mutant, cysteines for L161 and T300 (protein)
chain: B2 chain with C33K, L34C, C172F, T173C
- Kon, interaction of αL I-domains with ICAM-1 (ICAM-1 [2]): 135000 M⁻¹ s⁻¹
- Koff, interaction of αL I-domains with ICAM-1 (ICAM-1 [2]): 0.65 s⁻¹

Continued, in another order:

- binding of 293T transient transfectants to immobilized ICAM-1 with activating mAb CBRLFA-1/2 (ICAM-1 [1]): not able to activate binding
- binding of 293T transient transfectants to immobilized ICAM-1 (ICAM-1 [1]): did not bind
- binding of K562 cells expressing isolated I-domains to immobilized ICAM-1 (ICAM-1 [1]): did not bind
- effect of Mn2+ or Mg2+ on ligand binding of isolated I-domains (ICAM-1 [1]): did not activate ligand binding
- binding of K562 stable transfectants to immobilized ICAM-1 with activating mAb CBRLFA-1/2 (ICAM-1 [1]; K562, CBRLFA-1/2 10 μg/ml): did not binding to ICAM-1
- effect of Mn2+ and Mg2+ on binding of K562 transfectants to ICAM-1 (ICAM-1 [1]; K562, intact LFA-1, Mn2+ / Mg2+): did not increase binding
- binding of K562 stable transfectants to immobilized ICAM-1 (ICAM-1 [1]; K562, no activating antibody): did not binding to ICAM-1
- effect of DTT treatment on binding to ICAM-1 (ICAM-1 [1]): did not affect binding
- Kon, interaction of αL I-domains with ICAM-1 (ICAM-1 [2]): 2110 M⁻¹ s⁻¹
- Koff, interaction of αL I-domains with ICAM-1 (ICAM-1 [2]): 2.84 s⁻¹
B1: L289C/K294C: low affinity closed αL I-domain mutant, cysteines for L289 and K294 (protein)
chain: B2 chain with C33K, L162C, K167C, C172F

- affinity compared with high-affinity open αL I-domain K287C/K294C (times lower) (ICAM-1 [2]; ICAM-1, soluble I-domains): nearly comparable
- Kon, interaction of αL I-domains with ICAM-1 (ICAM-1 [2]): 128000 M⁻¹ s⁻¹
- Koff, interaction of αL I-domains with ICAM-1 (ICAM-1 [2]): 0.0459 s⁻¹
B3: E284C/E301C: high affinity open αL I-domain mutant, E284 and E301 replaced by cysteines (protein)
chain: B2 chain with C33K, E157C, C172F, E174C

- binding of K562 cells expressing isolated I-domains to immobilized ICAM-1 (ICAM-1 [1]): did not bind
- effect of Mn2+ or Mg2+ on ligand binding of isolated I-domains (ICAM-1 [1]): did not activate ligand binding
- effect of DTT treatment on binding to ICAM-1 (ICAM-1 [1]): did not affect binding
- Kd (ICAM-1 [2]; Scatchard plots using data at steady states, read-out: KD, interaction of αL I-domains with ICAM-1): 1350 µM
- Kon, interaction of αL I-domains with ICAM-1 (ICAM-1 [2]): 2220 M⁻¹ s⁻¹
- Koff, interaction of αL I-domains with ICAM-1 (ICAM-1 [2]): 3.00 s⁻¹
B5: wild-type I-domain: wild-type αL I-domain, soluble recombinant or expressed on K562 surface via PDGFR transmembrane domain (protein)
chain: B2 chain with C33K, C172F
- Fraction transmigration ([3]; intra-arterial I-domain 10 μg/g): ± (.+−.: 0-5%)
- Fraction Rolling ([3]; intra-arterial I-domain 10 μg/g 5 minutes before T-GFP cell injection): +++ (+++: 40-60%)
- Fraction firm adhesion ([3]; intra-arterial I-domain 10 μg/g, adherent >20 seconds): ++ (++: 20-40%)

- binding of 293T transient transfectants to immobilized ICAM-1 with activating mAb CBRLFA-1/2 (ICAM-1 [1]): increased
- binding of 293T transient transfectants to immobilized ICAM-1 (ICAM-1 [1]): reduced binding
B7: K287C: single cysteine substitution mutant of LFA-1 αL (protein, UniProt P20701 26-1170, looked up, variant K287C)
Integrin alpha-L: YNLDVRGARSFSPPRAGRHFGYRVLQVGNGVIVGAPGEGNSTGSLYQCQSGTGHCLPVTLRGSNYTSKYLGMTLATDPTDGSILACDPGLSRTCDQNTYLSGLCYLFRQNLQGPMLQGRPGFQECIKGNVDLVFLFDGSMSLQPDEFQKILDFMKDVMKKLSNTSYQFAAVQFSTSYKTEFDFSDYVKRKDPDALLKHVKHMLLLTNTFGAINYVATEVFREELGARPDATKVLIIITDGEATDSGNIDAAKDIIRYIIGIGKHFQTKESQETLHKFASKPASEFVCILDTFEKLKDLFTELQKKIYVIEGTSKQDLTSFNMELSSSGISADLSRGHAVVGAVGAKDWAGGFLDLKADLQDDTFIGNEPLTPEVRAGYLGYTVTWLPSRQKTSLLASGAPRYQHMGRVLLFQEPQGGGHWSQVQTIHGTQIGSYFGGELCGVDVDQDGETELLLIGAPLFYGEQRGGRVFIYQRRQLGFEEVSELQGDPGYPLGRFGEAITALTDINGDGLVDVAVGAPLEEQGAVYIFNGRHGGLSPQPSQRIEGTQVLSGIQWFGRSIHGVKDLEGDGLADVAVGAESQMIVLSSRPVVDMVTLMSFSPAEIPVHEVECSYSTSNKMKEGVNITICFQIKSLIPQFQGRLVANLTYTLQLDGHRTRRRGLFPGGRHELRRNIAVTTSMSCTDFSFHFPVCVQDLISPINVSLNFSLWEEEGTPRDQRAQGKDIPPILRPSLHSETWEIPFEKNCGEDKKCEANLRVSFSPARSRALRLTAFASLSVELSLSNLEEDAYWVQLDLHFPPGLSFRKVEMLKPHSQIPVSCEELPEESRLLSRALSCNVSSPIFKAGHSVALQMMFNTLVNSSWGDSVELHANVTCNNEDSDLLEDNSATTIIPILYPINILIQDQEDSTLYVSFTPKGPKIHQVKHMYQVRIQPSIHDHNIPTLEAVVGVPQPPSEGPITHQWSVQMEPPVPCHYEDLERLPDAAEPCLPGALFRCPVVFRQEILVQVIGTLELVGEIEASSMFSLCSSLSISFNSSKHFHLYGSNASLAQVVMKVDVVYEKQMLYLYVLSGIGGLLLLLLIFIVLYKVGFFKRNLKEKMEAGRGVPNGIPAEDSEQLASGQEAGDPGCLKPLHEKDSESGGGKD
